Test results: the supplement of paper PMC10724198
± gives the standard deviation of the averaged measurements.

What was measured:
[1] = test system: Saccharomyces cerevisiae; assay: protein stability index of tFT-peptide fusion (C-terminal peptide) (PSI (0-1 scale)); higher = more stable (slower turnover)
Method: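 MPS profiling in S. cerevisiae of the tFT-X12 degron library: putative degron peptides plus stable controls, 12 aa, fused to the C-terminus of a sfGFP-mCherry timer. Cells are FACS-sorted into 8 mCherry/sfGFP bins and deep-sequenced. PSI runs from 0 (unstable) to 1 (stable). Backgrounds are wild type, das1Δ and doa10Δ at 30 °C, and wild type, das1Δ, cdc34-1 and cdc53-1 at 37 °C; 2-3 technical replicates each.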

[2] = test system: Saccharomyces cerevisiae; assay: as above; conditions: genetic background: wild type; temperature: 30 C
[3] = genetic background: cdc34-1, temperature: 37 C
[4] = genetic background: cdc53-1, temperature: 37 C
[5] = genetic background: das1 deletion, temperature: 30 C
[6] = genetic background: das1 deletion, temperature: 37 C
[7] = genetic background: doa10 deletion, temperature: 30 C
[8] = genetic background: wild type, temperature: 30 C
[9] = genetic background: wild type, temperature: 37 C
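Further: PSI is a weighted mean of sequencing reads over stability bins, variants kept only with over 10 reads, mCherry proximal and sfGFP distal, peptide attached via GGGS linker.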

| Sequence | protein stability index [1, 3] | protein stability index [1, 4] | protein stability index [1, 5] | protein stability index [1, 6] | protein stability index [1, 7] | protein stability index [1, 8] | protein stability index [1, 9] | protein stability index [2] |
| --- | --- | --- | --- | --- | --- | --- | --- | --- |
| LLVRYYLFYVLV | 0.357 ± 0.018 | 0.442 ± 0.02 | 0.316 ± 0.048 | 0.477 ± 0.014 | 0.255 ± 0.0062 | 0.243 ± 0.024 | 0.391 ± 0.0082 | 0.351 ± 0.013 |
| GDLEFCCLIIVL | 0.4401 ± 0.0033 | 0.556 ± 0.072 | 0.302 ± 0.018 | 0.5755 ± 0.005 | 0.27 ± 0.042 | 0.306 ± 0.032 | 0.5052 ± 0.0033 | 0.321 ± 0.0098 |
| RSFSKRSFMFLC | 0.621 ± 0.025 | 0.728 ± 0.11 | 0.646 ± 0.018 | 0.734 ± 0.0094 | 0.154 ± 0.0079 | 0.172 ± 0.0087 | 0.227 ± 0.0064 | 0.263 ± 0.012 |
| LFGFILLGVSCC | 0.0506 ± 0.0034 | 0.0719 ± 0.0073 | 0.164 ± 0.029 | 0.22 ± 0.0022 | 0.156 ± 0.0021 | 0.168 ± 0.024 | 0.193 ± 0.015 | 0.211 ± 0.029 |
| CRQDWMCFVYLS | 0.0642 ± 0.013 | 0.0406 ± 0.0042 | 0.145 ± 0.021 | 0.187 ± 0.031 | 0.166 ± 0.0047 | 0.0558 ± 0.007 | 0.0647 ± 0.023 | 0.108 ± 0.016 |
| SRPLYVMICTRV | 0.4376 ± 0.00075 | 0.522 ± 0.035 | 0.327 ± 0.024 | 0.558 ± 0.018 | 0.246 ± 0.0034 | 0.287 ± 0.018 | 0.503 ± 0.022 | 0.386 ± 0.0086 |
| PLLPTPLTAPPP | 0.6705 ± 0.0022 | 0.73469 ± 0.00013 | 0.642 ± 0.031 | 0.7031 ± 0.006 | 0.659 ± 0.018 | 0.671 ± 0.023 | 0.6941 ± 0.0038 | 0.385 ± 0.0092 |
| VRGLGFRWVWGW | 0.747 ± 0.034 | 0.762 ± 0.011 | 0.664 ± 0.0089 | 0.7668 ± 0.0056 | 0.666 ± 0.011 | 0.668 ± 0.013 | 0.772 ± 0.018 | 0.711 ± 0.038 |
| EKKNQTAYNKTV | 0.691 ± 0.035 | 0.71 ± 0.023 | 0.644 ± 0.013 | 0.707 ± 0.022 | 0.149 ± 0.021 | 0.176 ± 0.028 | 0.365 ± 0.0059 | 0.39 ± 0.018 |
| KVLLYWRHAQRQ | 0.652 ± 0.052 | 0.6916 ± 0.006 | 0.654 ± 0.019 | 0.733 ± 0.01 | 0.387 ± 0.0069 | 0.44 ± 0.0086 | 0.611 ± 0.013 | 0.548 ± 0.11 |
| EGGGGRFWVCVG | 0.676 ± 0.044 | 0.732 ± 0.012 | 0.631 ± 0.0097 | 0.748 ± 0.014 | 0.258 ± 0.0033 | 0.298 ± 0.034 | 0.596 ± 0.018 | 0.425 ± 0.028 |
| GGTFWDGLVLVH | 0.34 ± 0.023 | 0.418 ± 0.03 | 0.32 ± 0.028 | 0.484 ± 0.0082 | 0.274 ± 0.013 | 0.334 ± 0.035 | 0.45476 ± 9.2e-06 | 0.497 ± 0.097 |
| FVVLVFMLGSVC | 0.274 ± 0.035 | 0.379 ± 0.029 | 0.254 ± 0.044 | 0.454 ± 0.044 | 0.234 ± 0.0062 | 0.245 ± 0.049 | 0.426 ± 0.035 | 0.365 ± 0.037 |
| VWWWGAVGWLMV | 0.572 ± 0.036 | 0.602 ± 0.028 | 0.528 ± 0.026 | 0.628 ± 0.016 | 0.392 ± 0.017 | 0.416 ± 0.018 | 0.547 ± 0.01 | 0.454 ± 0.0008 |
| GINHLSLKLRLF | 0.647 ± 0.049 | 0.723 ± 0.017 | 0.631 ± 0.014 | 0.7423 ± 0.0037 | 0.109 ± 0.037 | 0.133 ± 0.0058 | 0.288 ± 0.01 | 0.262 ± 0.017 |
| YRHYGVARKKLA | 0.592 ± 0.075 | 0.7016 ± 0.0023 | 0.634 ± 0.034 | 0.713 ± 0.028 | 0.081 ± 0.009 | 0.134 ± 0.01 | 0.127 ± 0.016 | 0.152 ± 0.0056 |
| CVFGFACRVLVV | 0.288 ± 0.012 | 0.32639 ± 4.3e-05 | 0.281 ± 0.031 | 0.407 ± 0.0012 | 0.241 ± 0.011 | 0.278 ± 0.02 | 0.364 ± 0.01 | 0.338 ± 0.017 |
| YFTNCYRSILTF | 0.4366 ± 0.0011 | 0.487 ± 0.013 | 0.367 ± 0.047 | 0.51517 ± 0.00037 | 0.3196 ± 0.00079 | 0.355 ± 0.031 | 0.48177 ± 0.00025 | 0.4436 ± 0.00083 |
| VRTFAVSCLCVC | 0.0897 ± 0.018 | 0.139 ± 0.034 | 0.19 ± 0.019 | 0.23 ± 0.0066 | 0.126 ± 0.0024 | 0.133 ± 0.013 | 0.128 ± 0.0014 | 0.301 ± 0.0037 |
